To fix the notation:
T1: human PVRIG-his (AcroBiosystems, Cat NO. PVG-H52H4) (human, UniProt Q6DKI7 41-171, limits assumed)
T1 construct: also called human PVRIG protein
T1 sequence (looked up): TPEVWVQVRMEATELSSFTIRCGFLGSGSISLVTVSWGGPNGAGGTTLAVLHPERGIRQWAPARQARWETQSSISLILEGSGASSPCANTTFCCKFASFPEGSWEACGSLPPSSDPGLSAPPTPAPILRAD

T2: Fusion protein of extracellular domain of human TIGIT and His-tag (human TIGIT ECD-his) (human)
T2 chain: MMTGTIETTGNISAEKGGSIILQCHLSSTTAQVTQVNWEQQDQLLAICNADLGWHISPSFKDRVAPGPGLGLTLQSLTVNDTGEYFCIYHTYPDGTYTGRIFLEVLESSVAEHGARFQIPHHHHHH

T3: Fusion protein of extracellular domain of human TIGIT and mouse IgG2a Fc fragment (human TIGIT ECD-mFc) (human)
T3 construct: The entry includes the signal peptide (limits not recoverable) and the mouse IgG2a Fc
T3 chain: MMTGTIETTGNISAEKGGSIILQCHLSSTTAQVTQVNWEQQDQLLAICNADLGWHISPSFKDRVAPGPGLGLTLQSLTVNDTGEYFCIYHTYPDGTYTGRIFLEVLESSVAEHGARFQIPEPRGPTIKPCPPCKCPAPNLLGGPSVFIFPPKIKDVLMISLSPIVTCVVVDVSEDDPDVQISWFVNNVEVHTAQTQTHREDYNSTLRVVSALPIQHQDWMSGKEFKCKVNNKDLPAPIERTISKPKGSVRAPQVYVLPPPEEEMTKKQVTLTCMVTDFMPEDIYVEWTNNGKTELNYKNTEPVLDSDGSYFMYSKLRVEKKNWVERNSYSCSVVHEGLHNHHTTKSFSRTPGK

T4: Full-length human TIGIT on CHO-K1 cells (CHO-K1 human TIGIT) (human, UniProt Q495A1 22-244)
T4 construct: NCBI XP_024309156.1; the entry includes the signal peptide (limits not recoverable); The strain (high, medium, low) is named under assay; also called high expression strain 1D2; medium expression strain 2D10
T4 sequence: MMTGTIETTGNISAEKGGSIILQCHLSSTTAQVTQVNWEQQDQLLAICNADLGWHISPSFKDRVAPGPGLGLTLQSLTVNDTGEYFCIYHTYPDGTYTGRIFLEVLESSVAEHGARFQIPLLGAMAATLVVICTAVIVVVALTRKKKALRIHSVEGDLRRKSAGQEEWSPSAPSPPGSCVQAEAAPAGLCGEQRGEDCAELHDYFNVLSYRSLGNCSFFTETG

B1: TIGIT-002-H4L3 (antibody, V domains shown)
VH: EVQLQESGPGLVKPSETLSLTCAVSGYSITSDSWNWIRQPPGKKLEYIGYISYSGNTYYNPSLKSRVTISRDTSKNQFSLKLSSVTAADTAVYYCARLDFSNYGGAVDYWGQGTTVTVSS
VL: DIVMTQSPDSLAVSLGERATINCKASQNVRTAVAWYQQKPGQSPKLMIYSASYRYTGVPDRFSGSGSGTDFTLTISSLQAEDVAVYYCQQYYTTPWTFGGGTKVEIK
notes: Humanized anti-TIGIT antibody
B2: TIGIT-006-H5L3 (antibody, V domains shown)
VH: B1 VH with I29M, S33Y, N56R, L98G, F100Y, V107M, D108Y, Y109D
VL: DIVMTQSPDSLAVSLGERATINCRASQGVSTTIAWYQQKPGQSPKLLIYSASYRYTGVPRFSGSGSGTDFTLTISSLQAEDVAVYYCQQYYSSPFTFGGGTKVEIK
notes: Humanized anti-TIGIT antibody
B3: TIGIT-005-H2L1d (antibody, V domains shown)
VH: EVQLVQSGAEVKKPGASVKVSCKASGYAFTNYLIEWVRQAPGQRLEWMGVINPGSGGTNYKEKFKGRVTITADKSSSTAYMELSSLRSEDTAVYYCARGEYFFFDYWGQGTTVTVSS
VL: B1 VL with N28H, R30S, T31N, Q38H, M47L, Y91H, T93N, W96H
notes: Humanized anti-TIGIT antibody with NG-site mutation in VL
B4: TIGIT-070-H1L1 (antibody, V domains shown)
VH: EVQLVQSGAEVKKPGASVKVSCKASGYTFTNYYMHWVRQAPGQRLEWMGRIDPDSGGSKYNEKFKSRVTITVDKSASTAYMELSSLRSEDTAVYYCAREGHYGFYSDYWGQGTTVTVSS
VL: DIQMTQSPSSLSASVGDRVTITCRVSENIYSYLAWYQQKPGKSPKLLIYNAKTLAEGVPSRFSGSGSGTDFTLTISSLQPEDFATYYCQHHYGNPLTFGPGTKVDIK
notes: Humanized anti-TIGIT antibody
B5: PVRIG-A118 (Fc fusion)
chain: QVQLVESGGGLVQAGGSLRLSCAASETYFDLYVMGWYRQAPGKDRELVATITYTGSIKIVDSVKDRFTISRGDAKNTVSLQMSSLKPEDTAVYFCNADPSGLGRKVYWGQGTQVTVSS
notes: heavy chain antibody VHH-hinge-CH2-CH3, human IgG1 constant part; not shown: human IgG1 hinge-CH2-CH3
B6: PVRIG-A50 (Fc fusion)
chain: EVQLVESGGGLVQPGGSLRLSCAASGFTFSYYDMSWVRQAPGKGLEWVSTINSNGGRTSYVDSVKGRFTISRDNTKNTLYLQMNSLKPEDTAVYYCVEGDPHNFGLENLSLRDFGSWGQGTQVTVSS
notes: heavy chain antibody VHH-hinge-CH2-CH3, human IgG1 constant part; also called PVRIG-50; not shown: human IgG1 hinge-CH2-CH3
B7: PVRIG-A105 (Fc fusion)
chain: EVQLVESGGGLVQAGGSLRLSCAASGRTFDRHTMTWFRQAPGKEREFVATASRIPGDTYYSHSVKGRFTISRDNAKNTVYLQLNNLKPEDTAVYYCAATSAYCSEVDCYEKGSWYDNWGQGIQVTVSS
notes: as for B5

Changes are numbered by the printed parent chain.

T5 sequence (chain, as listed by the source limits assumed): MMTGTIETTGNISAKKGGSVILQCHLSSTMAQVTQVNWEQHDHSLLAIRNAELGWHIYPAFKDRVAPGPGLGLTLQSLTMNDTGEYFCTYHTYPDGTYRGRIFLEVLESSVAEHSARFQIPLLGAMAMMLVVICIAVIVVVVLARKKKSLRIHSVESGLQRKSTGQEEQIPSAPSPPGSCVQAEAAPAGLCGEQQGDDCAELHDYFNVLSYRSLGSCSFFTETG

The first assay has as its target T5, Full-length cynomolgus monkey TIGIT on CHO-K1 cells (CHO-K1 cynomolgus monkey TIGIT) (cynomolgus monkey).
T5 construct: NCBI XP_015300911.1
Description: FACS; CHO-K1 cynomolgus monkey TIGIT. In outline: (§1)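 The EC50 was derived from binding curves obtained by flow cytometry on CHO-K1 cells expressing full-length TIGIT of human or cynomolgus monkey origin. Cells (2×10⁵/50 μL, 1% BSA-PBS) were mixed 1:1 with a 12-point, 3-fold antibody dilution series that began at 80 nM before mixing, then incubated for 60 min at 4° C.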
In turn, B1 showed an EC50 of 0.723 nM.
B2 had an EC50 of 0.922 nM.
On the same count and under the same terms, the result for B3 reads 0.631 nM; that for B4, 1.05 nM.

The target of a further assay is T1, human PVRIG-his (AcroBiosystems, Cat …). Description: SPR (BIAcore), antibody captured on Protein A chip, human PVRIG-His analyte. As to the method: Biacore was used to detect the specific binding between anti-PVRIG antibody and human PVRIG protein. Protein A chip was used in the BIAcore assay. The time required for the chip to capture the diluted antibody and saturate the binding antigen to reach Rₘₐₓ (Maximum binding capacity, 50 RU) was measured by manual run. […] The affinity of antibody for antigen was measured by multi-cycle kinetics. In each cycle, the antibodies were injected prior to the injection of gradient concentraions of PVRIG proteins allowing the occurrence of antibody-antigen association and dissociation After each cycle, the Protein A chip was regenerated by Glycine, pH 1.5 (to remove the proteins on the chip). The affinity of antibody for antigen was calculated by BIAcore T200 analysis software.
With B5, the affinity, expressed as Kd, was 0.48 nM; the koff came to 0.00114 s⁻¹; the kon was 2.38e+06 M⁻¹ s⁻¹.
B6 came in with a Kd of 0.0254 nM, a koff of 1.29e-05 s⁻¹ and a kon of 507000 M⁻¹ s⁻¹.
Molecule B7 had a dissociation constant (Kd) of 0.841 nM, a koff of 0.000443 s⁻¹ and an association rate constant (kon) of 527000 M⁻¹ s⁻¹.

For the next assay, the target named is T2, Fusion protein of extracellular domain …. Description: BIAcore.
B1 registered a Kd of 0.0531 nM, an off-rate (koff) of 0.0003 s⁻¹ and a kon of 5.65e+06 M⁻¹ s⁻¹.
Turning to B2, the Kd is 0.0639 nM, the koff stood at 0.00016 s⁻¹ and the kon was found to be 2.51e+06 M⁻¹ s⁻¹.
In the case of B3, the equilibrium dissociation constant (Kd) was found to be 0.0896 nM, the koff amounted to 0.000361 s⁻¹ and the kon is 4.03e+06 M⁻¹ s⁻¹.
For B4, the Kd is 0.0583 nM, the koff amounted to 0.000116 s⁻¹ and the kon turned out to be 1.98e+06 M⁻¹ s⁻¹.

In the next assay the target is T3, Fusion protein of extracellular domain …. Description: FACS; blocking of TIGIT ECD-mFc binding to CHO-K1 CD155 cells.
In turn, B1 had a 50% inhibitory concentration (IC50) of 0.492 nM.
B2: the IC50 was 0.458 nM.
In turn, B3 displayed an IC50 of 0.467 nM.
The molecule B4 gave a 50% inhibitory concentration (IC50) of 0.456 nM.

The next assay concerns the target T4, Full-length human TIGIT on CHO-K1 cells …. Description: FACS; CHO-K1 human TIGIT high expression strain. In outline: as §1
The molecule B1 yielded an EC50 of 0.297 nM.
Still for that read-out and setting: to B2 belongs 0.443 nM; to B3, 0.321 nM.
B4 returned an EC50 of 0.494 nM.

Another assay shares this target. Description: FACS; CHO-K1 human TIGIT medium expression strain. In a few lines: as §1
In the case of B1, a half-maximal response (EC50) required 0.228 nM.
Regarding B2, the 50% effective concentration (EC50) was found to be 0.396 nM.
For B3, a half-maximal effect (EC50) was put at 0.285 nM.
Take B4: it took 0.45 nM to reach a half-maximal effect (EC50).

Another assay concerns the target T5, Full-length cynomolgus monkey TIGIT on …. The experiment in a line: cell binding, CHO-K1 cynomolgus monkey TIGIT. In outline:
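Binding was measured by flow cytometry after a 60-minute, 4° C incubation of the antibodies with 2×10⁵ CHO-K1 cells displaying full-length human or cynomolgus monkey TIGIT. Antibody titration: 12 points, threefold serial dilution from 80 nM, in 1% BSA-PBS.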
On to B1, for which the EC50 was determined as 0.0473 nM.
B2: the EC50 amounted to 0.0578 nM.
Molecule B3 returned an EC50 of 0.0566 nM.
For the molecule B4, the EC50 is 0.0596 nM.

Values taken from patent US20240343803A1 (SHANDONG SIMCERE BIOPHARMACEUTICAL, published 2024).
